B1: full-length RspWYL1 (Ruminococcus sp. WYL1, amino acids 1–392) (natural protein)
chain: MLIPPSTFLPKRDKNVPYIAEVQSIPLSPSAYSVIIKDKSIFETSLSPNGSVSMSSFLTSIFDSAYIASLKYKSDDNYKYIGIPLLNAFVEWQIEEIDDSLDDKSKEIIKSYLISKLSAKYEKTKTENAVRVRLSICRDLYDTLSSDDLYYENKVYSLTLRRFLKAVYEDYALLSDCERERLIFADNIIKINEVIKQNGSRYYSFIYAYSNMYSREKRRIRLIPYRIVSDEYKMYNYLVCLSDEKSAGKEFKADSYRISRLSGLSIAEKLSQKEYSSVTEYERLKEGHVKSVKHLLSDPRFGSDESDISKVYLTEKGVEMFRKILYQRPILKGNEKPKPNTVNEFISPPIQVKYYFNKFGKDGVILSPSDSFEEMRTLYVEGADAYNREVEM
modifications: apo (no crRNA); full length assumed, since limits are not given; 954 aa matches the known EsCas13d length
B2: full-length RspWYL1 (Ruminococcus sp. WYL1, amino acids 1–392) (natural protein)
chain: B1 chain

Columns and labels:
EsCas13d = target: T1, EsCas13d ([Eubacterium] siraeum DSM 15702); assay: ITC
T1 chain: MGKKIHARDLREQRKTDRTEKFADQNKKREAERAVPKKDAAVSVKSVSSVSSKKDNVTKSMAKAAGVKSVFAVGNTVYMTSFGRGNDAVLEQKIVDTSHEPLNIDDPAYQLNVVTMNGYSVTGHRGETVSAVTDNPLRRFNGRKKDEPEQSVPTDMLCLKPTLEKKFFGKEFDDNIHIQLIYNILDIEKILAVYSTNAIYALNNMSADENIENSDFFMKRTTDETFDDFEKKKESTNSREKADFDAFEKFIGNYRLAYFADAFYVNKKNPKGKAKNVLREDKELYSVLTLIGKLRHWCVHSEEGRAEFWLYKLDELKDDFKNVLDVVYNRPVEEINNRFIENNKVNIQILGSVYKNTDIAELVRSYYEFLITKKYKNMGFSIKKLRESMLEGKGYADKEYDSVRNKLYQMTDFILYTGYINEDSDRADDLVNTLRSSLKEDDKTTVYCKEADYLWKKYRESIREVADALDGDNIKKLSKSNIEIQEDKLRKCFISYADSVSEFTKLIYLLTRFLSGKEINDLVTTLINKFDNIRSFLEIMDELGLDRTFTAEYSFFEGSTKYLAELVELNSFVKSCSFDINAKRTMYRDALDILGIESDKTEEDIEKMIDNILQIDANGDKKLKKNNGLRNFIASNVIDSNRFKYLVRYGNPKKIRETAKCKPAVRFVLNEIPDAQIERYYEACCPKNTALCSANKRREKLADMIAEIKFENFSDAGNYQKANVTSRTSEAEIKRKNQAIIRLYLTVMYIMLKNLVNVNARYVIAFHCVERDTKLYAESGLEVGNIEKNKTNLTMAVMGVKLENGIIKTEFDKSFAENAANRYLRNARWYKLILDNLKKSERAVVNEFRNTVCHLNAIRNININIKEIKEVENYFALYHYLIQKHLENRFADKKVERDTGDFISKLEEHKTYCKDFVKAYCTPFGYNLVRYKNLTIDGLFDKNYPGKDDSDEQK

RspCas13d = RspCas13d (Ruminococcus sp. (from the prefix Rsp, …)); assay: ITC

Row | Binder | Kd (EsCas13d) [µM] | Kd (RspCas13d) [µM]
1 | B1 | ~270 | –
2 | B2 | – | ~250
